Experimental data from patent publication US20230272055A1 (Incyte, published 2023).

T1: human mutCALR on BaF3 cells stably expressing human MPL and human mutCALR (MPL-mutCALR cells) (human)
T1 construct: also called mutant calreticulin
T1 chain: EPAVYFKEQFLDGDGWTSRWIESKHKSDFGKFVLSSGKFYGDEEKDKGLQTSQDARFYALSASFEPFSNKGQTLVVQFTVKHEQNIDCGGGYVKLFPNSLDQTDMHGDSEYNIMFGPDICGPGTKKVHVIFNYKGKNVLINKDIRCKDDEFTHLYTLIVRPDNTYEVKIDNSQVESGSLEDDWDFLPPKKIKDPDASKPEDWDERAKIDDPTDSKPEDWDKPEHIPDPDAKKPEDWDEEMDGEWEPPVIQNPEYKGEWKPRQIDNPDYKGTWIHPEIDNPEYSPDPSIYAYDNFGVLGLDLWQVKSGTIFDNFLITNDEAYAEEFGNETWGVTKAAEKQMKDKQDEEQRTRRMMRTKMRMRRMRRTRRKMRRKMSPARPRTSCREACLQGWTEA

B1: anti-mutCALR antibody clone 176 (antibody, human IgG1, lambda, N297A, V domains shown)
VH: EVQLVQSGAEVKKPGASVKVSCKVSGYTLTELSMQWVRQAPGKGLEWMGGFDPDAGETMYAEKFQGRLTVTEDTSTDTVYMELSSLRSEDTAVYFCATSPGYDFFDYWGQGTLVTVSS
VL: SYVLTQPPSVSVAPGQTARITCGGSDIGDEIVHWYQQKPGQAPVLVVYDDSDRPSGIPERFSGSNSGNTATLTISRAQAGDEADYYCQVWDSSSDHLIFGGGTKLTVLG
B2: anti-mutCALR antibody clone 175 (antibody, human IgG1, lambda, N297A, V domains shown)
VH: EVQLVQSGAEVKKPGASVKVSCKVSGYTLTELSMQWVRQAPGKGLEWMGGFDPDDGETMYAEKFQGRLTVTEDTSTDTVYMELSSLRSEDTAVYFCATSPGYDFFDYWGQGTLVTVSS
VL: SYVLTQPPSVSVAPGQTARITCGGSDIGDEIVHWYQQKPGQAPVLVVYDDSDRPSGIPERFSGSNSGNTATLTISRAQAGDEADYYCQVWDSSSDHLIFGGGTKLTVLG
notes: human IgG1 N297A variant of clone 17
B3: anti-mutCALR antibody clone 75 (antibody, human IgG1, lambda, N297A, V domains shown)
VH: EVQLVQSGAEVKKPGASVKVSCKVSGYTLTELSMQWVRQAPGKGLEWMGGFDPDDGETMYAEKFQGRLTVTEDTSTDTVYMELRSLTSEDTALYFCATSPGYDFFDYWGQGTLVTVSS
VL: SYVLTQPPSVSVAPGKTARITCGGNNIGSKSVHWYQQKPGQAPVLVVYDDSDRPSGIPERFSGSNSGNTATLTISRVEAGDEADYYCQVWDSSNDLLIFGGGTKLTVLG
B4: anti-mutCALR antibody clone 79 (antibody, human IgG1, lambda, N297A, V domains shown)
VH: EVQLVQSGAEVKKPGASVKVSCKVSGYTLTELSMQWVRQAPGKGLEWMGGFDPDDAETMYAEKFQGRLTVTEDTSTDTVYMELRSLTSEDTALYFCATSPGYDFFDYWGQGTLVTVSS
VL: SYVLTQPPSVSVAPGKTARITCGGNNIGSKSVHWYQQKPGQAPVLVVYDDSDRPSGIPERFSGSNSGNTATLTISRVEAGDEADYYCQVWDSSNDLLIFGGGTKLTVLG
B5: anti-mutCALR antibody clone 76 (antibody, human IgG1, lambda, N297A, V domains shown)
VH: EVQLVQSGAEVKKPGASVKVSCKVSGYTLTELSMQWVRQAPGKGLEWMGGFDPDAGETMYAEKFQGRLTVTEDTSTDTVYMELRSLTSEDTALYFCATSPGYDFFDYWGQGTLVTVSS
VL: SYVLTQPPSVSVAPGKTARITCGGNNIGSKSVHWYQQKPGQAPVLVVYDDSDRPSGIPERFSGSNSGNTATLTISRVEAGDEADYYCQVWDSSNDLLIFGGGTKLTVLG
B6: anti-mutCALR antibody clone 78 (antibody, human IgG1, lambda, N297A, V domains shown)
VH: EVQLVQSGAEVKKPGASVKVSCKVSGYTLTELSMQWVRQAPGKGLEWMGGFDPDEGETMYAEKFQGRLTVTEDTSTDTVYMELRSLTSEDTALYFCATSPGYDFFDYWGQGTLVTVSS
VL: SYVLTQPPSVSVAPGKTARITCGGNNIGSKSVHWYQQKPGQAPVLVVYDDSDRPSGIPERFSGSNSGNTATLTISRVEAGDEADYYCQVWDSSNDLLIFGGGTKLTVLG
B7: anti-mutCALR antibody clone 77 (antibody, human IgG1, lambda, N297A, V domains shown)
VH: EVQLVQSGAEVKKPGASVKVSCKVSGYTLTELSMQWVRQAPGKGLEWMGGFDPDSGETMYAEKFQGRLTVTEDTSTDTVYMELRSLTSEDTALYFCATSPGYDFFDYWGQGTLVTVSS
VL: SYVLTQPPSVSVAPGKTARITCGGNNIGSKSVHWYQQKPGQAPVLVVYDDSDRPSGIPERFSGSNSGNTATLTISRVEAGDEADYYCQVWDSSNDLLIFGGGTKLTVLG
B8: anti-mutCALR antibody clone 81 (antibody, human IgG1, lambda, N297A, V domains shown)
VH: EVQLVQSGAEVKKPGASVKVSCKVSGYTLTELSMQWVRQAPGKGLEWMGGFDPDAGETMYAEKFQGRLTVTEDTSTDTVYMELSSLRSEDTAVYFCATSPGYDFFDYWGQGTLVTVSS
VL: SYVLTQPPSVSVAPGKTARITCGGNNIGSKSVHWYQQKPGQAPVLVVYDDSDRPSGIPERFSGSNSGNTATLTISRVEAGDEADYYCQVWDSSNDLLIFGGGTKLTVLG

The binders below were run against T2, Recombinant MBP-mutCALR Type 1 fusion protein (human) (assay: SPR, IgG captured, 1:1 fit, Exp. 2).
T2 construct: custom made at Cepter; also called recombinant mutCALR protein
How it was run: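 Antibodies captured via amine-coupled anti-human IgG (Fc) on a CM4 chip; recombinant MBP-mutCALR Type 1 fusion protein as analyte. Run at 25 °C in Tris-buffered saline pH 7.2, 0.005% P20, 1 mM CaCl₂. Multiple-cycle kinetics fitted to a 1:1 binding model.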

| Binder | Kd [nM] | koff [s⁻¹] | kon [M⁻¹ s⁻¹] |
| --- | --- | --- | --- |
| B1 | 2.8 | 0.00278 | 994000 |
| B2 | 1.39 | 0.00631 | 4.53e+06 |

Molecular target: T1, human mutCALR on BaF3 cells stably …
Experiment: flow cytometry, BaF3 MPL-mutCALR cells
Method: On the day of the assay, cells were washed and resuspended in assay buffer. Approximately 200,000 cells/well were added to 96-well plates and stained with the indicated concentration of antibodies for 30 minutes on ice. Cells were then washed and stained with goat anti-human secondary conjugated to R-phycoerythrin (R-PE) (Jackson Immuno Research Laboratories) for 30 minutes on ice. The cells were then washed and analyzed by flow cytometry.

| Binder | MPL-mutCALR AUC | EC50 [ng/mL] |
| --- | --- | --- |
| B3 | 84900 |  |
| B4 | 71900 | 3.3 |
| B5 | 55100 | 8.2 |
| B6 | 64300 | 5.5 |
| B7 | 54200 | 6.7 |
| B8 | 52900 | 8.2 |
